Assay results: patent publication US20020031803A1

Experiments:
[1] = biological target: human RB protein (human) (UniProt P06400)
[2] = biological target: human p107 (human) (UniProt P28749)
UniProt P28749, sequence (P28749 whole entry): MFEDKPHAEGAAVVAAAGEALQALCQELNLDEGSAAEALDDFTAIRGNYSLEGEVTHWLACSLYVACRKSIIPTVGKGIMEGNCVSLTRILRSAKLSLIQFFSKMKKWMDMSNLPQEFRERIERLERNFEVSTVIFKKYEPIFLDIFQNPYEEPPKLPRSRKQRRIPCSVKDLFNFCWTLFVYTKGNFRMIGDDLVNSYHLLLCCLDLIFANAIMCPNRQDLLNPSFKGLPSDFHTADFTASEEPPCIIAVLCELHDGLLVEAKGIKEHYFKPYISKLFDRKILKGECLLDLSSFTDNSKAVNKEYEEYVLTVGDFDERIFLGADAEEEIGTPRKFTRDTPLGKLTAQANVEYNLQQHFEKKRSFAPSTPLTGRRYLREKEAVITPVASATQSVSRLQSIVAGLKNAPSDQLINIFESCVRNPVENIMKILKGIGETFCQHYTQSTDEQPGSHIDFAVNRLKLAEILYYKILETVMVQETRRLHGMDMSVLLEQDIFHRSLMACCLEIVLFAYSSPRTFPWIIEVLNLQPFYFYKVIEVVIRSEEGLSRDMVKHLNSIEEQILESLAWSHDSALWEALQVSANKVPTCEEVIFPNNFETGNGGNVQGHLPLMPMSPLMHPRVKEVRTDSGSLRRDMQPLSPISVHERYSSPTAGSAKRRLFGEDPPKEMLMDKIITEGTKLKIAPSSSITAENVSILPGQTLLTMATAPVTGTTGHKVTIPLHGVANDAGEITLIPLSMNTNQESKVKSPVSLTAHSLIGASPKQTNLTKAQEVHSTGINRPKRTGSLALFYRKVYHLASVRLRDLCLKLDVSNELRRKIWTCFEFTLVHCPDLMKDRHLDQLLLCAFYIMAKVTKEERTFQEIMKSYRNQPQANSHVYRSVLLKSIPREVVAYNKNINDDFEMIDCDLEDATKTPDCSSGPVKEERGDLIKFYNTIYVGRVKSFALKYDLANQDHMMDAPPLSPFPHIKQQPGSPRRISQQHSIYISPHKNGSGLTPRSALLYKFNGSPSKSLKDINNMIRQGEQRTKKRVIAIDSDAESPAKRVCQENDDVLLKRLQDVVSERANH

UniProt P06400, sequence (P06400 whole entry): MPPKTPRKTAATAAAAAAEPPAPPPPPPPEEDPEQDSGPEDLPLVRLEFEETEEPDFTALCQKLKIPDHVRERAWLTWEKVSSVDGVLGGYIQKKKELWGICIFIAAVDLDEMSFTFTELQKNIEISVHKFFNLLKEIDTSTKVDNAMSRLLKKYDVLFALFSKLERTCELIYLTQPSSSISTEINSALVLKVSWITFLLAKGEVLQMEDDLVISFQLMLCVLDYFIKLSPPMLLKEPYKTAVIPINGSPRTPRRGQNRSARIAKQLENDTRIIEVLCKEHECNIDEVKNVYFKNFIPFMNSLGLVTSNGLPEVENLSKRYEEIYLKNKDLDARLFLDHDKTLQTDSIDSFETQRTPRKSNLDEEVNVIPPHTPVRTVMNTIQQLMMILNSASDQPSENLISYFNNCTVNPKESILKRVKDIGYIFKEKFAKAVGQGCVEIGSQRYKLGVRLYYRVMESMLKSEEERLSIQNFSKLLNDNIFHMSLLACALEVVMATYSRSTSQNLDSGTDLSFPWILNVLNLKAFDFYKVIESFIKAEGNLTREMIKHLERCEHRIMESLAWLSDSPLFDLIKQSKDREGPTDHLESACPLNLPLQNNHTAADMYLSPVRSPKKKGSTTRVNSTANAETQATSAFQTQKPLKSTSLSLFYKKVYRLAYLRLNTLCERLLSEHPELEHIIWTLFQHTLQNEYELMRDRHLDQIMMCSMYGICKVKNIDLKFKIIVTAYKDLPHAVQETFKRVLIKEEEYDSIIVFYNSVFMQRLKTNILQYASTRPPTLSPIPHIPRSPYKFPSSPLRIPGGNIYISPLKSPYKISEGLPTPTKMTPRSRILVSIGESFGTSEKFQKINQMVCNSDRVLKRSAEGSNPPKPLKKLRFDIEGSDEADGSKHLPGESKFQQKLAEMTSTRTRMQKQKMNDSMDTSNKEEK

Substance: 107-T mutant SV40 large T antigen (lysine for glutamic acid at codon 107) (from UniProt P03070 1-708) (other; other documents disagree on this pair)
- Observed signal compared to T, % [1]: 0.03%
- Observed signal compared to T, % [2]: 0%

Substance: wild-type SV40 large T antigen (from UniProt P03070 1-708) (other; other documents disagree on this pair)
- Observed signal compared to T, % [1]: 100%
- Observed signal compared to T, % [2]: 100%
